{"source": "paper PMC11239949", "key": {"[1]": {"biological_target": "Mucin 1 (MUC1) on MCF-7 cells; aptamer designed against the VNTR region (UniProt P15941)", "sequence (P15941 whole entry)": "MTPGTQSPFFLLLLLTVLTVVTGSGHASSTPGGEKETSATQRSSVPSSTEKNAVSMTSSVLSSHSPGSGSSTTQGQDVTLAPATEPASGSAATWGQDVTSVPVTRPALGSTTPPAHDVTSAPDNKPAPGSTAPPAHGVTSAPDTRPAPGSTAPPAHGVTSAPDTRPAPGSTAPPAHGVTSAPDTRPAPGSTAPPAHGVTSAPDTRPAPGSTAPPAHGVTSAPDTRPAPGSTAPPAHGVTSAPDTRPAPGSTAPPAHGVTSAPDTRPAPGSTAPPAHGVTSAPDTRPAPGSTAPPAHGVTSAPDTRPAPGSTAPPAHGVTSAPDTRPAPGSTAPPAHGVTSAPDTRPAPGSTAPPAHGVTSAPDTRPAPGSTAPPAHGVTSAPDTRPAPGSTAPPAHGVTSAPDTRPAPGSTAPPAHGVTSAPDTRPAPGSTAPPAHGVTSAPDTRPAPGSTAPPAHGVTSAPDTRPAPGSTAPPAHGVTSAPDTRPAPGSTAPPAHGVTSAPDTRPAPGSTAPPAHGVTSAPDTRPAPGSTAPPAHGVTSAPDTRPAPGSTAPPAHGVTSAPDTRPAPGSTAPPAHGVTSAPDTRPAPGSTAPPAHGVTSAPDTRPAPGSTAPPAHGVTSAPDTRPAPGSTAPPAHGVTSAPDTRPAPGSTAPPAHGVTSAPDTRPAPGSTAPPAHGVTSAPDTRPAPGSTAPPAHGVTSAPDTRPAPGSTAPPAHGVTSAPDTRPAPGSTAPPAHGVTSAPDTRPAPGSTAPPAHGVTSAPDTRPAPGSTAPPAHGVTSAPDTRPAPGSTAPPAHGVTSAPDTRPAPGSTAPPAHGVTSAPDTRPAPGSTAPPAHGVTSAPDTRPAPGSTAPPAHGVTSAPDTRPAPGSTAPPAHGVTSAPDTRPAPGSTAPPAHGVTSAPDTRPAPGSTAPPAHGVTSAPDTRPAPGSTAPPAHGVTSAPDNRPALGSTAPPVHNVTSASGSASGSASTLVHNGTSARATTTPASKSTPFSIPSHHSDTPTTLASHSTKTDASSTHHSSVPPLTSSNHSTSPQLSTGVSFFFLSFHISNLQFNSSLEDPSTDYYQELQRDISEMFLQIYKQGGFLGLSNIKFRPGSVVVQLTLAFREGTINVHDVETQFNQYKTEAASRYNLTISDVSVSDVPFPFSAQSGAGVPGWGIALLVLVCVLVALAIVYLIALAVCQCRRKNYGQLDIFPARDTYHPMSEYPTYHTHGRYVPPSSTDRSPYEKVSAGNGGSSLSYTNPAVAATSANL", "experiment": "whole-cell fluorescence binding", "details": "DBCO or NH2 at 5' (which version was used as free aptamer is not stated); 5x10^4 DAPI-stained MCF-7 cells added to 500 uL A-f-M13-MB (resuspended in PBS), 30 min, 37 C; one-site fit over aptamer concentration"}, "[2]": {"biological_target": "Mucin 1 (MUC1) on MCF-7 cells; aptamer designed against the VNTR region (UniProt P15941)", "experiment": "whole-cell capture on magnetic beads (fluorescence)", "details": "multivalent (apparent), 5x10^4 DAPI-stained MCF-7 cells added to 500 uL A-f-M13-MB (resuspended in PBS), 30 min, 37 C, one-site fit over aptamer concentration"}}, "data": [{"sequence": "TTTTTGCAGTTGATCCTTTGGATACCCTGG [S2.2 aptamer, free (FAM-labelled)]", "values": [{"measurement": "Kd", "setting": "[1]", "result": 260, "unit": "nM"}]}, {"sequence": "TTTTTGCAGTTGATCCTTTGGATACCCTGG [NH2-Apt (S2.2) on magnetic beads]", "values": [{"measurement": "Kd", "setting": "[2]; A-MB, 5' NH2, coupled to carboxyl magnetic beads", "result": 21, "unit": "nM"}]}, {"sequence": "TTTTTGCAGTTGATCCTTTGGATACCCTGG [DBCO-Apt (S2.2) clicked on M13 pVIII]", "values": [{"measurement": "Kd", "setting": "[2]; A-f-M13-MB, flexible phage, 5' DBCO, coupled to N3-PEG on M13 phage sidewall", "result": 0.00109, "unit": "nM"}, {"measurement": "Kd", "setting": "[2]; A-r-M13-MB, PFA-treated rigid phage, 5' DBCO, coupled to N3-PEG on M13 phage sidewall", "result": 0.0248, "unit": "nM"}]}]}
